This passage reports protein production results from a protein production outcome set (Wang et al. 2014).

The data set in a line: label from the status in PepcDB records.
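Note: failed if final PepcDB status was selected cloned or expressed and not failed if soluble or beyond.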

With “MKLVTYNIQYGIGLDGQYDVARIADAVRGADVVALQEVTRNNPRNGGRDMVAEIGEALPDYFAVYGSNFEANIGSRIENGRAITTTFQLGNMMLSKTPIHLSRNLLLPRSRSFEMMNFQRGALEALIETPLGFIRFYSIHLDHRSPVERASQIQFLRRRLLNYALEGGALSGVAEIGLPELPHPEAFVAMGDFNMLAGSPEYVELAGRPDHQFGMPLTADFAVDAAVRLNVTGDDLASWVDPKDPANTSRHKRIDYVFTSASPARSLQHLWVDHQATGSDHLPVWAELG”, the protein production result is recorded as “failed”. “MKMDTGALTFQQKIYWLVKQIPLGRVATYGQIAALCGWPRHGRYVGYALYRVAPNSDIPWHRVVNAQGKISYAPQRRGTDELQRWRLAAEGIIFTAGLEHHHHHH”: the protein production result is “failed”. In the case of “MKMEARQKQNSFTSKMQKIVNHRAFTFTVIALILFNALIVGIETYPRIYADHKWLFYRIDLVLLWIFTIEIAMRFLASNPKSAFFRSSWNWFDFLIVAAGHIFAGAQFVTVLRILRVLRVLRAISVVPSLRRLVDALVMTIPALGNILILMSIFFYIFAVIGTMLFQHVSPEYFGNLQLSLLTLFQVVTLESWASGVMRPIFAEVPWSWLYFVSFVLIGTFIIFNLFIGVIVNNVEKAELTDNEEDGEADGLKQEISALRKDVAELKSLLKQSK”, the protein production entry was “failed”. Turning to “MKMKHAFGPIILACVLFFIIILIPSKSLVSLISDKKVEDAATSLQKEKLQSVFLQQKMLENSQYLPMYGSSEFLRMDAYHPSNYFKVNPAGFTPYLIGIGGTQSLAHILNMTSTIDELEGKKVVFVLSPQWFTKTGVSQGDFTNNFSKQQAYHFIFNDKMNVEMKKQIAKRLLDYKVVQEDDILKNSLEGIVYNDTKHNIKAGLVKPLAYMHRNILDHRDLFNSIFKIEPMKEKTNVGLRSISWVDARKHAEEEGKAESTTNTFGIENPYYYKHNLKKKLKGLKNFRVNESYEESPEYDDLQIVLNIFKEKNVKPLFISVPVNGPWYDYAGFPKERREVYYKKVREQVEKAGYPVVDFSGHEYDKYFLKDTIHLGWKGWIYFDEAVQNFYNEKLEHHHHHH”, the protein production result is “failed”. “MKMMDANEIISFIQKSEKKTPVKVYIKGDLKEVTFPETVQAFVNKKSGVLFGEWSEIKTILDENSKYIVDYVVENDRRNSAIPMLDLKGIKARIEPGAIIRDHVEIGDNAVIMMNATINIGAVIGEGSMIDMNAVLGGRATVGKNCHVGAGAVLAGVIEPPSAKPVIVEDDVVIGANVVVLEGVTVGKGAVVAAGAVVTEDVPPYTVVAGTPARVIKEIDEKTKAKTEIKQELRQLNPEK”: the protein production result is “failed”. On to “MKMMDANEIISFIQNSTKSTPVKVYVKGELEGINFGESAKAFINGNTGVVFGEWSEIQTAIEENQSKIEDYVVENDRRNSAIPMLDLKNIKARIEPGAIIRDQVEIGDNAVIMMGASINIGSVIGEGTMIDMNVVLGGRATVGKNCHIGAGSVLAGVIEPPSAKPVVIEDDVVIGANAVVLEGVTVGKGPVVAAGAIVVNDVEPYTVVAGTPAKKIKDIDEKTKGKTEIKQELRQL”, for which the protein production entry is “not failed”. Regarding “MKMVDELKGNLNSFLILLGIFSFLQFSFKQSFMFPSILPLNIPDSNLLLVIGNISFYFFFVFLLIVSMILSLTYKSLIPLTIILTISPFITLIPNYENSFLLYSLEIAILILGLASTIEGLIKSSLLSILLIPTLVLVNLGIYASILLNIFHNALFISYLTIYLISIAGYLAYVISWGKIKSLRNYIAISVGLLSMIPFIFFENIISHNRYLEILMNMILPSTLGITLYNPYHITLLVMALGLSTMGIVTSLIKGNVSSGVGYFLIITTVFLGIDGFSLLIYMLTPIIGFLVITSSEIESKRRLIDIISPTRNG”, the protein production entry is “failed”. As to “MKNAFLYFLLYYRMLTTYYEWFVIVCFPQIRKICCYNEDTKTNAMEAIMKKLIGIATAAVFGLGIFTSSANAETVVTTDVLNVRENPTTESKVVGKLLNGNKIDVQNTENGWSKITLDGKDAFVSAEFTKSIYYVTANVLNVRAEANTNSEILGTLKKDDMIETTNQVQNEWLQFEYNGKTAYVHVPFLTGTAPVIEKQEQPAPAKAQAPAQAPAAQAKQAAKPAVKAAETNTPSGGRELTVVATAYTAHPSENGGTYGGRVLTAMGHDLTANPNMKMIAVDPKVIPLGSKVWVEGYGEAIAGDTGGAIKGNRIDILLGSDSAAQKWGRKTVKVKILK”, the protein production entry is given as “failed”. As for “MKNEGKKGTEQAKKPEKTKITENEINGNESGKQSFEVDRRSVYRCVQCGTCRSVCPVFDVVGWESANTRGRMLIIKSLLEGRPPSEDMLPSLASCTTCGICAVKCPAGVKPPKVVEAARAQLVKCGITTEAQKNLKSTIMTYGNSFGETRDRKHWLSEVERSQLPEKSDYVYFVGCFDSYRYPEFAKKTFGILQQFGVTLLPDEQCCASPLLRTGFKEDAEKVMKHNLEQIRKVGAHTIITSCAGCYTTLKNNYPEELKVISLPEFLVEHLEELNLKKLDLTVTYHDPCHLGRHNKVYDAPRKVIQAICTLKEMKYIKENARCCGGGGGVRTGYPDISLELARNRLKDVPEGVDYIVTSCPLCVRNLRDAGGDIEVIDIVELVAMAME”, the protein production entry was “failed”. As for “MKNEVFFGEGMKVVAAAYPDLYDIIVKLNDTVFTGKTLDYKTQKLIAIGIVASRCDEVAIEKQMKSAMKELGITKEEIADVLRVVLLTSGMPAFTKAMKILEKL”, the entry is “not failed”. Consider “MKNFLMKKIIYSGVLSIHFILAFVVNSVGAAQLKKSSTLSMNVLFITIDDLNNDLGAYGHHLVKSPNIDALAKKGIRFDKAYSQSPMCTPSRSSFMTGLYPDQTGIIAHGSHTQMTAHFREHIPKVTTLPQLFKNNGYFSGRVGKIYHQGVPNQIGTSGADDAASWHETVNPIGLDKDVEDKIIAFNEKALVRQSFGGVLSFLAIGDDDKAHTDGKVATETINMIKDHHPDKTGKPFFIGAGFYRPHTPFVAPKKYFDLYPLEKIKPYIAPKNDRKDIPDIALQDREGQVGLTLNQRKQIIQGYYAAVSYVDAQVGRVLDALKQQDLSDNTIVVFLSDHGYELGQHGLWQKGSLFEGSARAPLIIYAPNVKDNGRVVTSPVELVDIYPTLAKLTGLVAPEYLAGKDLTPALNDVDFQVRKGAYSAILNRNKGDNNQFAFTKIRGHSIRTNRYRYTEWGEGYFGAELYDHKNDPQELKNLADKVSLESVRIKMKWLLNDAMDDAQKRIKSIE”, for which the protein production entry is reported as “failed”.

Turning to “MKNIEKLEQSLTYEFKDKNLLIHALTHKSFKKSYNNERLEFLGDAVLDLVVGEYLFHKFAKDAEGDLSKLRAALVNEKSFAKIANSLNLGDFILMSVAEENNGGKEKPSILSDALEAIIGAIHLEAGFEFAKTIALRLIEKNFPQIDAKILIKDYKTKLQEITQGKIGQTPQYETVRAFGPDHLKQFEIALMLDGKELARAIAGSKKEAQQMAAKIALEKLGAL”, the protein production result is reported as “not failed”. Regarding “MKNILKVFNTTILALIIIIATFSNSANAADSGTLNYEVYKYNTNDTSIANDYFNKPAKYIKKNGKLYVQITVNHSHWITGMSIEGHKENIISKNTAKDERTSEFEVSKLNGKIDGKIDVYIDEKVNGKPFKYDHHYNITYKFNGPTDVAGANAP”, the protein production entry is given as “not failed”. With “MKNKKYLQFGGIAAVILIVLFLVSLFSSDTRNFQEVDTSVAMAQLDAGNVAEAQIDDREQRVRLTLREPITVDEREGVEEILAQYPARTAPAIFEKVEASNTDSYTTNVTQESFLMSMLSFILPMVIIFGLLMFFLTRMQGGGMFGIGGSKAKQLTKDMPTNTFADVAGAEEAVDELHEIKDFLEDPTRYEALGAKIPRGVLLYGPPGTGKTLLARAVAGEAGVPFYSISGSDFVEMFVGVGASRVRDLFKQAKENSPCIIFVDEIDAVGRARGSGMGGGHDEREQTLNQLLVEMDGFGDRQGVILMAATNRPDVLDPALLRPGRFDRQIPVTNPDLRGREQILEVHAKGKPFAPDADIKALAKRTAGMSGADLANVLNEAALLTARVGGNVITADALEEATDRVVGGPRRSGKVISEKEKKVTAYHEGGHTLSAWALEDIERVYKVTILARGRTGGHAMTAQEDDKGMYNRNELFARLVFAMGGRSAEELVFGEPTTGASADIEMATKIARSMVTEYGMSPAVGMVKYGQEQGDPFSGRGGGGNLDHSQEVAATIDTEVQFLLDKAHEVSYSILAEYRDHLDRLAEKLLEKETLRRPDLEALFDDIVPRKVAEVFPDESTRFPRQENREPVKTPVELALERGEEPPKKFSILEASRATRERRRKELEAQGKLPVQPASSAGVAPAAGAAAGSYGTPPPADWSVPGSAGKHRSRAEEQPAEQGFPAQTPAQAPEQSPDSSGGRPNPYATPTASGEHPGMKAYGFGDSELMDQSTGAEHTPGNVSQESPTEMIGFRLPDHERSDYPEKAQKESVLDASETTEMPVVPDQPIDGDSGKSAEGTQENPENEGDNRG”, the protein production result is on record as “failed”. “MKNLVVVDHPLIKHKLTIMRDKNTGPKEFRELLREITLLLAYEATRHLKCEEVEVETPITKTIGYRINDKDIVVVPILRAGLVMADGILELLPNASVGHIGIYRDPETLQAVEYYAKLPPLNDDKEVFLLDPMLATGVSSIKAIEILKENGAKKITLVALIAAPEGVEAVEKKYEDVKIYVAALDERLNDHGYIIPGLGDAGDRLFRTK”: the protein production entry was “not failed”. For “MKNPQSKADDILQCARTLIIRGGYNSFSYADISQVVGIRNASIHHHFPSKSDLVCKLVSQYRQEAEAGIAELEKNISDPLEQLRAYIGYWEGCIADATHPFCVCALLASEIPVLPETVVLEVRAHFRSLSDWLTAVLERGIAQGRLVLTGTARANAEIFMATVHGAMLSARAHGDAATFGAITRPMLERITA”, the protein production result is reported as “not failed”.

Regarding “MKNRIWSAAMAAGLLVAAATSAQAEPVMQGRDAYGDWQSDRPGTVRLIRPQDLVKPGATRSVASFARVVPRPSDASPQVPPGFKIELFAEGLRAPRIVRVAPNGDVFVAETRAGTIRVLRAGEGGKVAANEVFASGLRQPFGVAFFPNGDNPQWVYVANTDSVVRFPYQAGDLKARSKAEKIVASLPHDGGHSTRDIVFTPDNKRMLVSVGSLSNVAEGMGTPPGGMDAWSKTQPLGAAWASETERATVLAFTPDGKERKIYATGIRNCVGLAIQSQTGLPWCSTNERDGLGDDLVPDYVTSVKEGAFYGWPWFYIGGNEDPRHAGARPDLKDRVTIPDVLIQPHSASLGMTFYEGTQFPSDYQGDAFAAEHGSWNRSKRTGYKVIRIRMKDGKPTGEYEDFVTGFVLSDTEVWGRPVGVAVAKDGALLISEDGNGTIWRVSHP”, the protein production result is “failed”. In the case of “MKPILALLSLLALPVMAAEPTLYGRYENIKVLEIGQTFKAKMDTGALTASLSAKDIELFQRDGDDWVRFRLATKGADDKVYEHKVSRISKIKGRAEGDDEDDEGINPAKRPVVDLELCLGNKKRTVEVNLVDRSHFNFPLLIGAKALREFGAAINPARRYTADEPDC”, the protein production entry was “not failed”. Regarding “MKPLEQAINDNKKKKRFNFRMPGAFMILFILTVVAVIATWIIPAGAYSKLSYEPSSQELKIVNPHHQVKKVPGTQKELDRLGVKIKIEQFKSGAINKPVSIPNTYERLKQHPAGLDQITSSMVKGTIEAVDIMVFILVLGGLIGVVQASGSFESGLLALTQKTKGHEFMLIAFVSILMIIGGTLCGIEEEAVAFYPVLVPIFIALGYDSIVSVGAIFLASSVGSTFSTINPFSVVIASNAAGTTFTDGLYWRIGACIIGAIFVISYLFWYCKKIKKDPKSSYSYEDKAAFEKQWSVLHDDGSSEFTLRKKIILTLFVLPFPIMVWGVMTQGWWFPVMASVFLIFTIIIMFIAGTGQYGLGEKGTVDAFVNGASSLVGVSLIIGLARGINLVLNKGMISDTILHFSSSIVQHMSGPLFIIVLLFIFFCLGFIVPSSSGLAVLSMPIFAPLADTVGIPRFVIVTTYQFGQYAMLFLAPTGLVMATLQMLNMRYSHWLRFVWPVVAFVLIFGGGLLITQVLIYS”, the protein production result is “failed”.

As to “MKPPSAIMETALYADDLDAAEAFYRDVFGLEMVLKLPGQLVFFKCGRQMLLLFDPQESSRADANNPIPRHGAVGQGHFCFYADDKAEVDEWKTRFEALEIPVEHYHRWPNGSYSVYIRDPAGNSVEVGEGKLWGFE”, the protein production entry is given as “not failed”.
